The source of these data is paper PMC9812933.

For assay [1], the target named is CheA (Escherichia coli) (UniProt P07363). As to conditions: cited from earlier work.
The target in assay [2] is cytoplasmic fragment of the E coli Asp receptor (CF4Q) (E. coli). The assay can be described thus: co-sedimentation.

For the molecule CheA (from UniProt P07363), the Kd (as a rule, a measure of binding affinity in units of concentration) in assay [1] is 490 nM.

B1: chemotaxis histidine kinase (CheA) (enzyme)
chain: MSMDISDFYQTFFDEADELLADMEQHLLVLQPEAPDAEQLNAIFRAAHSIKGGAGTFGFSVLQETTHLMENLLDEARRGEMQLNTDIINLFLETKDIMQEQLDAYKQSQEPDAASFDYICQALRQLALEAKGETPSAVTRLSVVAKSEPQDEQSRSQSPRRIILSRLKAGEVDLLEEELGHLTTLTDVVKGADSLSAILPGDIAEDDITAVLCFVIEADQITFETVEVSPKISTPPVLKLAAEQAPTGRVEREKTTRSNESTSIRVAVEKVDQLINLVGELVITQSMLAQRSSELDPVNHGDLITSMGQLQRNARDLQESVMSIRMMPMEYVFSRYPRLVRDLAGKLGKQVELTLVGSSTELDKSLIERIIDPLTHLVRNSLDHGIELPEKRLAAGKNSVGNLILSAEHQGGNICIEVTDDGAGLNRERILAKAASQGLTVSENMSDDEVAMLIFAPGFSTAEQVTDVSGRGVGMDVVKRNIQKMGGHVEIQSKQGTGTTIRILLPLTLAILDGMSVRVADEVFILPLNAVMESLQPREADLHPLAGGERVLEVRGEYLPIVELWKVFNVAGAKTEATQGIVVILQSGGRRYALLVDQLIGQHQVVVKNLESNYRKVPGISAATILGDGSVALIVDVSALQAINREQRMANTAA
In assay [2], B1 had a fraction of CheA bound of 88%.
